# Columns and labels:
# [1] = molecular target: triglyceride-rich lipoproteins; test: co-incubation with TGRLP, cell binding and ligand blots
# [2] = molecular target: trypsinized VLDL Sf100-400, devoid of apoE (tryp-VLDL) (human) (UniProt P04114); test: inhibition of 125I-tryp-VLDL1 binding to THP-1 macrophages, 4 °C, LpL 1.6 µg/ml
# [3] = molecular target: trypsinized VLDL2 (tryp-VLDL2) (human) (UniProt P04114); test: inhibition of 125I-tryp-VLDL2 binding to THP-1 macrophages, 4 °C, LpL 1.0 µg/ml
binder,measurement,setting,value
"lipoprotein lipase (enzyme, UniProt P06858 28-475, looked up, species assumed) Lipoprotein lipase: ADQRRDFIDIESKFALRTPEDTAEDTCHLIPGVAESVATCHFNHSSKTFMVIHGWTVTGMYESWVPKLVAALYKREPDSNVIVVDWLSRAQEHYPVSAGYTKLVGQDVARFINWMEEEFNYPLDNVHLLGYSLGAHAAGIAGSLTNKKVNRITGLDPAGPNFEYAEAPSRLSPDDADFVDVLHTFTRGSPGRSIGIQKPVGHVDIYPNGGTFQPGCNIGEAIRVIAERGLGDVDQLVKCSHERSIHLFIDSLLNEENPSKAYRCSSKEAFEKGLCLSCRKNRCNNLGYEINKVRAKRSSKMYLKTRSQMPYKVFHYQVKIHFSGTESETHTNQAFEISLYGTVAESENIPFTLPEVSTNKTYSFLIYTEVDIGELLMLKLKWKSDSYFSWSDWWSSPGFAIQKIRVKAGETQKKVIFCSREKVSHLQKGKAPAVFVKCHDKSLNKKSG",percent inhibition of specific binding,[1],25%
same,Percent Inhibition,[2],26%
same,Percent Inhibition,[3],17%

# From patent US20030208060A1
